± gives the standard deviation.

This data set is described as follows: protein stability index of a GFP-peptide fusion (GPS, HEK-293T) (PSI 1-6); higher = more stable.
The mark [1] stands for this setting: treatment: DMSO, c terminus: a fixed tail appended.
The mark [2] stands for this setting: treatment: MLN4924 1 uM, 8 h, c terminus: a fixed tail appended.
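Also: 24-mer peptide tiles fused after GFP, lentivirally expressed, FACS-sorted into six equal bins by GFP/DsRed ratio, decoded by Illumina sequencing, PSI is the read-weighted mean bin number.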

Take MWLTPLHRAVASRSEEAVQVLIKH [ANKRD44]: the protein stability index is 2.29 ± 0.12 under setting [1] and 2.45 ± 0.18 under setting [2].

Consider NAEMKSAMRKLWSKKVSLAGKWLY [OR4A15], for which the protein stability index by setting is: under setting [1], 3.85 ± 0.63; under setting [2], 2.8 ± 0.85.

NAGTGLVINQADVRNNRSIIKQLK [PLD5]: the protein stability index came to 3.88 ± 0.27 under setting [1] and 3.84 ± 0.11 under setting [2].

As for NARGMGIRSPRPASVATWAIFVHR [CTBP1-DT], the protein stability index turned out to be 2.16 ± 0.48 under setting [1] and 2.15 ± 0.37 under setting [2].

In the case of NDSDHQSSTSPLMEGTPTIKSKKK [VPS39], the protein stability index was determined as 5.45 ± 0.26 under setting [1] and 5.57 ± 0.25 under setting [2].

With NESLASLPLRVSFCPLSLWRWQLY [CLPTM1], the protein stability index came to 2.45 ± 0.41 under setting [1] and 2.18 ± 0.4 under setting [2].

As for NEYLLNLVATNAHLDHYYQEELPA [FCHSD1], the protein stability index runs as follows: under setting [1], 3.25 ± 0.11; under setting [2], 3.27 ± 0.38.

Consider NFLLFDMTTHPLTNNNIKQRLIKK [GOLPH3], for which the protein stability index runs as follows: under setting [1], 2.62 ± 0.22; under setting [2], 2.81 ± 0.25.

Sequence NGFPDSTGDPLPEISKDNSCKENC [EDARADD] registered a protein stability index under setting [1] of 5.2 ± 0.24 and a protein stability index under setting [2] of 5.17 ± 0.48.

Turning to NHDSHMAKERAHSTASHSSSNSED [PDZK1], the protein stability index is 5.59 ± 0.17 under setting [1] and 5.61 ± 0.23 under setting [2].

Turning to NIQVTGSAALFYLTNSEYRSEQSV [ZER1], the protein stability index is, setting by setting: under setting [1], 2.63 ± 0.24; under setting [2], 2.84 ± 0.19.

As to NKQTLSSGEKYDPDANTWTALPPM [GAN], the protein stability index by setting is: under setting [1], 4.07 ± 0.39; under setting [2], 4.03 ± 0.1.

For NLESKSTIGVEFATRSIQVDGKTI [RAB11A], the protein stability index runs as follows: under setting [1], 4.33 ± 0.19; under setting [2], 4.27 ± 0.35.

Take NLFCVLRLVVEFPATGGAIPSWQI [PKD2L1]: the protein stability index amounted to 3.39 ± 0.28 under setting [1] and 3 ± 0.5 under setting [2].

Take NLINQMLTINPAKRITAHEALKHP [CAMK2B]: the protein stability index runs as follows: under setting [1], 2.38 ± 0.32; under setting [2], 2.23 ± 0.12.

For NLMSLLMAVRPSLPESGLLSVLQI [FANCE], the protein stability index runs as follows: under setting [1], 3.09 ± 0.51; under setting [2], 2.78 ± 0.55.

Turning to NLNREEKIIREIDFYREDEDEEEE [TRIM55], the protein stability index runs as follows: under setting [1], 5.37 ± 0.15; under setting [2], 5.3 ± 0.32.

As for NLPNLAAAYSSILSSLGENPQRQG [GCH1], the protein stability index reads like this: under setting [1], 3.03 ± 0.2; under setting [2], 3.2 ± 0.43.

Take NLSRGQTPLTEGSEDLDGHSDPEE [RETREG3]: the protein stability index under setting [1] came out at 5.65 ± 0.22 and the protein stability index under setting [2] stood at 5.67 ± 0.15.

As for NPVQPIGPQTPKACDSKLTFDAIT [MMP1], the protein stability index by setting is: under setting [1], 4.21 ± 0.22; under setting [2], 4.23 ± 0.22.

Consider NQEYKMLLDIKTRLEQEIATYRSL [KRT13], for which the protein stability index stood at 2.58 ± 0.21 under setting [1] and 2.78 ± 0.19 under setting [2].

With NQILMEKYLKLQDTCRTQLVWLVR [INTS3], the protein stability index is, setting by setting: under setting [1], 2.02 ± 0.39; under setting [2], 2.38 ± 0.31.

In turn, NQSFNIVDIKPANMEELTEVITAA [PPP2R2B] gave a protein stability index under setting [1] of 4.18 ± 0.26 and a protein stability index under setting [2] of 4.26 ± 0.16.

Consider NRSDHGIFHSRTSLQKLSTKLSAQ [FCHSD1], for which the protein stability index is, setting by setting: under setting [1], 3.43 ± 0.25; under setting [2], 3.67 ± 0.36.

For the sequence NSISSDKEATVPCTEILTEKKDTI [MIA2], the protein stability index runs as follows: under setting [1], 5.29 ± 0.28; under setting [2], 5.06 ± 0.21.

In the case of NVCSLLAQTPLHVAAETGHTSTAR [RIPK4], the protein stability index was 3.67 ± 0.26 under setting [1] and 3.47 ± 0.27 under setting [2].

With NVSTKEGIHLALVELLKNLTKYPT [INTS4], the protein stability index worked out at 2.53 ± 0.36 under setting [1] and 2.5 ± 0.25 under setting [2].

As to NYFVTMFDDYSATLPLTLIVILEN [SLC6A17], the protein stability index came to 3.05 ± 0.61 under setting [1] and 2.85 ± 0.62 under setting [2].

Take PAAGESLSGTRESLAQGPDAATTD [TBC1D10A]: the protein stability index stood at 5.36 ± 0.32 under setting [1] and 5.29 ± 0.13 under setting [2].

With PANVDASVMYRKWKESKGKDREYT [CDC34], the protein stability index runs as follows: under setting [1], 4.16 ± 0.33; under setting [2], 4.21 ± 0.13.

Turning to PAPGKLLGPCVVGYGIYYFIYSTW [SAT2], the protein stability index is 2.62 ± 0.65 under setting [1] and 2.92 ± 0.46 under setting [2].

Regarding PCHPTVKNWRNFASKWGMSYDELC [EDARADD], the protein stability index reads like this: under setting [1], 2.64 ± 0.28; under setting [2], 2.54 ± 0.38.

Turning to PDLNILEDSAESRPWRAGVLAEGD [PSD2], the protein stability index by setting is: under setting [1], 4.87 ± 0.13; under setting [2], 4.99 ± 0.14.

Take PDLNTLLWEAEDRQNVPRKVPNHY [CPXM2]: the protein stability index was determined as 3.87 ± 0.27 under setting [1] and 3.86 ± 0.092 under setting [2].

Take PDNWFCYPCIPNHELVWAKMKGFG [ZMYND11]: the protein stability index was determined as 2.43 ± 0.37 under setting [1] and 2.12 ± 0.18 under setting [2].

With PDQVAPFTFLQPLPLSPGVLSSTP [ATF4], the protein stability index came to 3.44 ± 0.33 under setting [1] and 3.74 ± 0.19 under setting [2].

Turning to PDSELSPCIPPGFRNLVADRVLNY [SPAG8], the protein stability index by setting is: under setting [1], 3.18 ± 0.23; under setting [2], 3.34 ± 0.33.

Regarding PDTRHPCSLGSSLVADYSDSESE [YJU2B], the protein stability index is, setting by setting: (treatment: DMSO, c terminus: native) 5.39 ± 0.1; (treatment: MLN4924 1 uM, 8 h, c terminus: native) 5.29 ± 0.13.

With PECGLAKKPPEESTCFERPCFKWY [ADAMTSL2], the protein stability index stood at 3.4 ± 0.42 under setting [1] and 2.96 ± 0.34 under setting [2].

As to PEGNILRDRFKSFQRRNMIEPRER [NOP53], the protein stability index runs as follows: under setting [1], 4.25 ± 0.31; under setting [2], 4.29 ± 0.36.

PESLTKPDQVAPFTFLQPLPLSPG [ATF4]: the protein stability index reads like this: under setting [1], 4.21 ± 0.3; under setting [2], 4.2 ± 0.12.

Sequence PFSSSSPENVEDSGLDSPSHAAPG [FCHO1] registered a protein stability index under setting [1] of 5.5 ± 0.19 and a protein stability index under setting [2] of 5.4 ± 0.39.

As to PGCGYFCTAGNFMECQPESSISHR [EHMT1], the protein stability index reads like this: under setting [1], 2.64 ± 0.15; under setting [2], 2.61 ± 0.53.

Sequence PGEKSHWGEGLHQLREALKILAER [EMID1] came in with a protein stability index under setting [2] of 2.13 ± 0.33.

As for PGFLSTAEEETLSRELEPELRRRR [ALKBH7], the protein stability index is 5.12 ± 0.23 under setting [1] and 5.28 ± 0.3 under setting [2].

Turning to PGGLTLEEHSLEQVQSMVVGEVLK [SPDEF], the protein stability index amounted to 3.34 ± 0.28 under setting [1] and 3.53 ± 0.38 under setting [2].

For the sequence PGKLFIGGLNTETNEKALEAVFGK [RBMX], the protein stability index runs as follows: under setting [1], 3.54 ± 0.35; under setting [2], 3.69 ± 0.38.

With PGNRTCTGTSKRYQLCRVQECPPD [ADAMTSL2], the protein stability index was determined as 3.61 ± 0.32 under setting [1] and 3.69 ± 0.045 under setting [2].

PGPHSAKQDSYEQGDSSQQSLKGH [ZC2HC1C]: the protein stability index stood at 5.24 ± 0.28 under setting [1] and 5.52 ± 0.082 under setting [2].

For the sequence PGSIIGPQQHFLEEKQASLWVQGD [CDC14A], the protein stability index is, setting by setting: under setting [1], 4.04 ± 0.37; under setting [2], 4.14 ± 0.4.

Consider PHKGLNLHPLLSGRLGRWLRSTRF [PCDHGC5], for which the protein stability index was determined as 2.35 ± 0.23 under setting [1] and 2.13 ± 0.28 under setting [2].

Turning to PHTVLDRQLLCLIDYYESKIRKIH [CEP70], the protein stability index worked out at 2.46 ± 0.34 under setting [1] and 2.28 ± 0.19 under setting [2].

In the case of PHYELCTLRGTGATADFADVADDF [NETO1], the protein stability index under setting [1] turned out to be 4.69 ± 0.1 and the protein stability index under setting [2] amounted to 4.59 ± 0.25.

On to PICSANHKESKMTIFEKENFIGRQ [CRYBA1], for which the protein stability index stood at 3.34 ± 0.27 under setting [1] and 3.46 ± 0.18 under setting [2].

PILKVQYHPRDQNKVLVCPMKSAP [RBBP5]: the protein stability index by setting is: under setting [1], 2.99 ± 0.17; under setting [2], 3.13 ± 0.14.

Sequence PIRNRAFYMEEGVPYCERDYEKMF [PDLIM7] displayed a protein stability index under setting [1] of 3.3 ± 0.31 and a protein stability index under setting [2] of 3.43 ± 0.34.

Regarding PKCSCGQLAAVHLSKSRTDYQPTQ [RNF180], the protein stability index is 2.55 ± 0.17 under setting [1] and 2.63 ± 0.35 under setting [2].

Regarding PKGSKGKEKDSPFKPKLYKGDRGL [RBBP5], the protein stability index was found to be 3.86 ± 0.89 under setting [1] and 4.34 ± 0.46 under setting [2].

Take PKTVPSHVFSELWDLSEAWMQANY [ELOA2]: the protein stability index runs as follows: under setting [1], 2.6 ± 0.26; under setting [2], 2.56 ± 0.41.

For PLCNFNIIESFTELARIVLLRHRM [RAB40A], the protein stability index stood at 2.6 ± 0.21 under setting [1] and 2.87 ± 0.79 under setting [2].

Regarding PLCNFNVIESFTELSRIVLMRHGM [RAB40C], the protein stability index is, setting by setting: under setting [1], 2.94 ± 0.45; under setting [2], 2.73 ± 0.41.

On to PLESIDHSVTGFLCEPDPVHFSEA [ALG2], for which the protein stability index by setting is: under setting [1], 4.48 ± 0.15; under setting [2], 4.48 ± 0.025.

For the sequence PLHELITMNRRVCVLMLLAAWIGG [OR4A15], the protein stability index is, setting by setting: under setting [1], 2.84 ± 0.27; under setting [2], 2.92 ± 0.26.

As for PLRAAHRRFNFDTDRPLLSTLEES [SMG5], the protein stability index is, setting by setting: under setting [1], 3.94 ± 0.14; under setting [2], 3.94 ± 0.18.

On to PLRLFLIIANTMAFQNDVYEWARD [SCD], for which the protein stability index by setting is: under setting [1], 2.75 ± 0.61; under setting [2], 2.87 ± 0.61.

For PLRNDVDKRGETTSASLLNAGLSH [SLC2A12], the protein stability index by setting is: under setting [1], 4.55 ± 0.32; under setting [2], 4.66 ± 0.22.

In the case of PLRVDLILENTSKVPAPKDVLAHQ [NOP53], the protein stability index amounted to 3.28 ± 0.036 under setting [1] and 3.5 ± 0.29 under setting [2].

PLSPAFFGEDGIFRHDRLRFRDFV [PBXIP1]: the protein stability index by setting is: under setting [1], 2.77 ± 0.16; under setting [2], 2.91 ± 0.39.

Take PLYTLIDVLKYSYVRLVCKDVRAP [ZSWIM9]: the protein stability index runs as follows: under setting [1], 2.84 ± 0.25; under setting [2], 3.02 ± 0.63.

Consider PPLEDFEVLDGVEDAEGEEEEEEE [FKBP8], for which the protein stability index reads like this: under setting [1], 5.69 ± 0.27; under setting [2], 5.61 ± 0.34.

As to PPTQLEVNLEEIPGEGLLISWAFT [C2CD2L], the protein stability index was 2.75 ± 0.41 under setting [1] and 3.01 ± 0.5 under setting [2].

Take PPVMPGMPPGLHHQRKYTQSFCGE [ZNF207]: the protein stability index by setting is: under setting [1], 3.76 ± 0.15; under setting [2], 3.75 ± 0.14.

The values above are taken from the supplement of paper PMC10567573.
